Results taken from PMC5268420 (PLoS ONE, 2017).

What was measured:
purified αIIbβ3 integrin = target: T1, purified αIIbβ3 integrin (Homo sapiens (assumed), UniProt P08514;P05106); experiment: SPR; Biacore 3000; αIIbβ3 amine-coupled on CM5 (about 8000 RU); scFv injected at 94, 188 and 390 nM; HBS-EP with 2 mM Ca2+; 20 μL/min; settings: both partners purified
T1 construct: integrin αIIb (CD41) subunit of purified αIIbβ3; integrin β3 subunit of purified αIIbβ3; probably from human platelets (surmise); also called integrin αIIbβ3; source: bought: Kordia Life Sciences

[1] = target: T2, αIIbβ3 integrin on lyophilized platelets (Homo sapiens (assumed), UniProt P08514;P05106); experiment: BLI; Octet Red96; TEG4-2c scFv loaded on HIS2 (anti-penta-His) sensor at 21 μg/mL; platelets 5x10^5 to 5x10^8/mL (αIIbβ3 42 pM to 42 nM) as analyte; platelet buffer; settings: one partner purified
T2 construct: integrin αIIb (CD41) on lyophilized platelets; integrin β3 on lyophilized platelets; Platelet concentrations were converted into αIIbβ3 molarities with 50 000 αIIbβ3 per platelet; also called whole platelets; blood platelets; source: bought: lyophilized platelets, Helena Biosciences Europe, resuspended

[2] = target: T3, αIIbβ3 integrin on human platelets (Homo sapiens, UniProt P08514;P05106); experiment: flow cytometry on cells; washed human platelets activated with 0.5 U/ml thrombin, PFA-fixed; 25 μg/mL TEG4-2c scFv overnight at 4°C; detected with Alexa Fluor 488 anti-6His; settings: one partner purified
T3 construct: integrin αIIb (CD41), human, on platelets; integrin β3, human, on platelets; the state is told by the assay; also called A-PL; NA-PL; source: endogenous, human platelets (washed platelets and platelet-rich plasma from healthy donors; platelets in human coronary artery sections)

[3] = target: T4, αIIbβ3 integrin on murine platelets in atherosclerotic aorta sections (Mus musculus, ApoE-/-, UniProt Q9QUM0;O54890); experiment: immunostaining of cells or tissue; paraffin sections of atherosclerotic arteries of mouse, rabbit and human; scFv 20-40 μg/ml overnight at 4°C; detected with HRP anti-6His and DAB; settings: one partner purified
T4 construct: integrin αIIb (CD41), mouse, on platelets in tissue; integrin β3, mouse, on platelets in tissue; source: endogenous, paraffin sections of aorta of ApoE-/- mice

[4] = target: T5, αIIbβ3 integrin of rabbit platelets in aorta (Oryctolagus cuniculus, New Zealand, UniProt Q9TUN4;Q9TUN3); experiment: as above; settings: one partner purified
T5 construct: integrin αIIb (CD41), rabbit, endogenous in aorta tissue; integrin β3, rabbit, endogenous in aorta tissue; In the ELISA the integrin stood within solubilised aorta proteins (T-PER or HSB lysis buffer), not on cells; also called atheromatous proteins; healthy aorta proteins; source: endogenous, New Zealand rabbit aorta (paraffin sections; soluble protein extracts of atheromatous and healthy aorta)

T4 sequence (Q9QUM0 32-1033, chain 1 of 2): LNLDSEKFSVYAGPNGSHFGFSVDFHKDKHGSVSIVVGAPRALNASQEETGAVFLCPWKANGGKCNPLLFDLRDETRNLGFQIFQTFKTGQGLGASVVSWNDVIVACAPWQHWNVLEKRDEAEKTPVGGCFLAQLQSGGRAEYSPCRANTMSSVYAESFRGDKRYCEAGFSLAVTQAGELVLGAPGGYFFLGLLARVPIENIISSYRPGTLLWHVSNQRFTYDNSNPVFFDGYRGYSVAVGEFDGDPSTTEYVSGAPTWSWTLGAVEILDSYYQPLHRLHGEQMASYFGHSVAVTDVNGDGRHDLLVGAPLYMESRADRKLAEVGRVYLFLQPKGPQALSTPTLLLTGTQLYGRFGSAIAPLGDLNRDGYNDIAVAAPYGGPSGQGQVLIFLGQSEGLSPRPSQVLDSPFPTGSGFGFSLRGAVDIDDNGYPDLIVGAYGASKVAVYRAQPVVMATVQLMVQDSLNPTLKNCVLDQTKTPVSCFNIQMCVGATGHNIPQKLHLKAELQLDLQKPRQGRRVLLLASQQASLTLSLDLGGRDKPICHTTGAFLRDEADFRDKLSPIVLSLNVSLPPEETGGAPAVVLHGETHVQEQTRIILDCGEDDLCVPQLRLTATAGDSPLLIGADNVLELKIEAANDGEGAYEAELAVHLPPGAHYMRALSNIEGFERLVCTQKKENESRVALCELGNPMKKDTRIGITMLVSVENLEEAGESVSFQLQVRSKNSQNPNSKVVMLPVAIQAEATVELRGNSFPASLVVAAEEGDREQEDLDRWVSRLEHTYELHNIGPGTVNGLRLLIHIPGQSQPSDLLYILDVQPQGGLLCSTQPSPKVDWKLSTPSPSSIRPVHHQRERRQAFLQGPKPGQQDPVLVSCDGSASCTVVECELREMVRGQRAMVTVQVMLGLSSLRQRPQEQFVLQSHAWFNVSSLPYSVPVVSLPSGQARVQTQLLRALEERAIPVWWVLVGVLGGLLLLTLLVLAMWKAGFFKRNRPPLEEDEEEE
T4 sequence (O54890 26-787, chain 2 of 2): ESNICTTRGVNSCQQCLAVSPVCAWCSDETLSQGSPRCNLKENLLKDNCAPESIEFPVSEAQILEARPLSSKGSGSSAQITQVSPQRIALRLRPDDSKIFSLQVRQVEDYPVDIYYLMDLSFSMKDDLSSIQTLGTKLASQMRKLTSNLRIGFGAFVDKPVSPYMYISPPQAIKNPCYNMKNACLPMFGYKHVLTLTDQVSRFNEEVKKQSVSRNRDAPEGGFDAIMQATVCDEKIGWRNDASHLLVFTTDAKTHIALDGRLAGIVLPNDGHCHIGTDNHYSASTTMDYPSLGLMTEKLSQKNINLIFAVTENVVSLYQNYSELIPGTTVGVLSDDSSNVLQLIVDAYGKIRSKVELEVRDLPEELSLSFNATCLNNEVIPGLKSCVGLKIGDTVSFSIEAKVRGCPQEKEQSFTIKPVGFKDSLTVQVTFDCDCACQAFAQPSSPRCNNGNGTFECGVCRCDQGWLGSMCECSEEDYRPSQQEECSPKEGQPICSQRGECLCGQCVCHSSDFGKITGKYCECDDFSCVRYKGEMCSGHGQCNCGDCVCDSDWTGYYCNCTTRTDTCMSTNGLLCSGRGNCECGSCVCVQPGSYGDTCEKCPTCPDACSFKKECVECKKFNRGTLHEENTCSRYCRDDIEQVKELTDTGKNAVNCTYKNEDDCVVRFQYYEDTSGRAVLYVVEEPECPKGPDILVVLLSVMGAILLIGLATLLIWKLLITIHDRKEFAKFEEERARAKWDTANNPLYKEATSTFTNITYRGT
T3 sequence (P08514 32-1039, chain 1 of 2): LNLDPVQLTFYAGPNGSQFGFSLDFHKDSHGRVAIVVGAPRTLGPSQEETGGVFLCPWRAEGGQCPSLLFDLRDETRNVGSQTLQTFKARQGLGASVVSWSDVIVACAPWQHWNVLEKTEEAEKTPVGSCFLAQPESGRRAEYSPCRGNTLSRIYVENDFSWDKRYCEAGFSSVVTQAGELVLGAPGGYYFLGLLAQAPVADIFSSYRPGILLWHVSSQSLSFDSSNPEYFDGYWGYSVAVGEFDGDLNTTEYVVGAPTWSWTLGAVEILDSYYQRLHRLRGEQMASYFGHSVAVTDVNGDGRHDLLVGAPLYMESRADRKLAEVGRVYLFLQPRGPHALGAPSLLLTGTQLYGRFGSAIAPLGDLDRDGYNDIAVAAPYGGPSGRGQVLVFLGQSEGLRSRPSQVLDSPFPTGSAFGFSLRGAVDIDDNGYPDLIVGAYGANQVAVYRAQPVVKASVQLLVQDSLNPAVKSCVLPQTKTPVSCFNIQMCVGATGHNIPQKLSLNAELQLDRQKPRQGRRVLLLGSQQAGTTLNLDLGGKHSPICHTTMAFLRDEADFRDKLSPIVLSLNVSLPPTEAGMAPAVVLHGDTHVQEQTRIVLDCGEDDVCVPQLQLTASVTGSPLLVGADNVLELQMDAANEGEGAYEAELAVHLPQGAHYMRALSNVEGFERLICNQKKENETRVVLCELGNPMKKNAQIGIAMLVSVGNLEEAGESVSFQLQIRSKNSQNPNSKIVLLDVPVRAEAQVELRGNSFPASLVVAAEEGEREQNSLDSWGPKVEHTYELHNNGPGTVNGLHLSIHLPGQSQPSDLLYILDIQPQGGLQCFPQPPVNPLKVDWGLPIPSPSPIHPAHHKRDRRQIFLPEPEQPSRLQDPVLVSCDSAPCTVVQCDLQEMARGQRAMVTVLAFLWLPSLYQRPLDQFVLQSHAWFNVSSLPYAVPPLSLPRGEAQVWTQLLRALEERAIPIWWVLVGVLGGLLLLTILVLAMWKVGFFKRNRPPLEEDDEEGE
T3 sequence (P05106 27-788, chain 2 of 2): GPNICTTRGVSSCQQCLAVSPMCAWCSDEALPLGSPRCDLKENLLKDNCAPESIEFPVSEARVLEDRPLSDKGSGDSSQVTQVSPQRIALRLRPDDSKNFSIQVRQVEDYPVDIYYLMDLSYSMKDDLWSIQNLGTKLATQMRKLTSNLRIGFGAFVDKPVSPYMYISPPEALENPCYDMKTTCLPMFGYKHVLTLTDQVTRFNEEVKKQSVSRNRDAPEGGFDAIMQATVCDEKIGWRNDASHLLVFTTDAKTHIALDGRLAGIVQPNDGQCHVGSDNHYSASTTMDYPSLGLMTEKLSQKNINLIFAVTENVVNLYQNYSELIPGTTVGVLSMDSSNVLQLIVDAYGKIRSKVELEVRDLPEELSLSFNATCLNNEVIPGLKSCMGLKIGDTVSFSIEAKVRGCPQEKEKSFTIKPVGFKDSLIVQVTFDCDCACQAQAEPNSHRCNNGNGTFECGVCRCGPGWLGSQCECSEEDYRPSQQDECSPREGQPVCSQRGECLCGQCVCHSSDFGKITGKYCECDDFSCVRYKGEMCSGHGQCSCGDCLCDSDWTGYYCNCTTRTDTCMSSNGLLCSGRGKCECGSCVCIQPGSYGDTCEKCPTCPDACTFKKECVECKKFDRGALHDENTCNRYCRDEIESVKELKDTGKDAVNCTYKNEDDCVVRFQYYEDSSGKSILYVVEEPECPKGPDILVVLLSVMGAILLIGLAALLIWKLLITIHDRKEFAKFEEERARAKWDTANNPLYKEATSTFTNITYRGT
T2 sequence (P08514 32-1039, chain 1 of 2): as the sequence (P08514 32-1039, chain 1 of 2) above
T2 sequence (P05106 27-788, chain 2 of 2): as the sequence (P05106 27-788, chain 2 of 2) above
T1 sequence (P08514 32-1039, chain 1 of 2): as the sequence (P08514 32-1039, chain 1 of 2) above
T1 sequence (P05106 27-718, chain 2 of 2): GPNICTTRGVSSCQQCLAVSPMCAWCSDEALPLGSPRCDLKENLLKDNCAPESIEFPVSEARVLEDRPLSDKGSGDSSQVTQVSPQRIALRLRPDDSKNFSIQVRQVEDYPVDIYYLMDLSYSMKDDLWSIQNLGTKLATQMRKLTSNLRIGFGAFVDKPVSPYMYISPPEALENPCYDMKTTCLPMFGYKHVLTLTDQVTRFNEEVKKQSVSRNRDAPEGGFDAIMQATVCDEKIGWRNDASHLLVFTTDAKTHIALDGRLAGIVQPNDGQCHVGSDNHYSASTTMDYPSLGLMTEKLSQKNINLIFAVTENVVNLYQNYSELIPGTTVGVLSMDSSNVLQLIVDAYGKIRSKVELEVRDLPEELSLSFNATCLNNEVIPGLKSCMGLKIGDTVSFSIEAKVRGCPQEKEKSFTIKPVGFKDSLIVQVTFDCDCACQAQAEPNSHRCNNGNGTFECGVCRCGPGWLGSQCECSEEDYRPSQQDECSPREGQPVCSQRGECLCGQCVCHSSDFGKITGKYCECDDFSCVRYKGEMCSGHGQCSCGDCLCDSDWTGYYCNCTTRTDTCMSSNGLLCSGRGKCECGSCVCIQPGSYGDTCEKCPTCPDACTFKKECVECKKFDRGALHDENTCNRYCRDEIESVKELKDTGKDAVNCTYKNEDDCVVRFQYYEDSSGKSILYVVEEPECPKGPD

binding result (purified αIIbβ3 integrin): binds
binding result [1]: binds
binding result [2]: binds
binding result [3]: binds
binding result [4]: binds
B1: TEG4-2c scFv (recombinant human anti-αIIbβ3 single-chain variable fragment with 6His-Gly-Cys-Cys C-terminus) (scFv, V domains shown)
VH: QVQLVESGGGVVQPGRSLRLSCAASGFTFSSYAMHWVRQAPGKGLEWVAVISYDGSNKYYADSVKGRFTISRDNSKNTLYLQMNSLRAEDTAVYYCARKSYFDYWGQGTLVTVSS
VL: VSELTQPASVSGSPGQSITISCTGTSSDVGGYNYVSWYQQHPGKAPKLMIYEVSNRPSGVSNRFSGSKSGNTASLTISGLQAEDEADYYCSSYTSSSTLVVFGGGTKLTVL
notes: Gly-Cys-Cys added after the 6His tag at the very C-terminus (printed in three-letter code as 'Gly-Cyc-Cys'), for site-specific grafting; Order at the C-terminus: scFv, c-myc tag, 6His, Gly-Cys-Cys; Purified fractions are said to hold monomers and dimers; also called scFv TEG4-2c; anti-αIIbβ3 TEG4-2c scFv; source: Pichia pastoris X33, secreted into the supernatant, purified (IMAC HisTrap excel, …)
